Test results: doi:10.1101/2025.08.25.672096 (bioRxiv, 2025)

T1: GST::KIF14(901-1648) (UniProt Q15058 901-1648)
T1 sequence (looked up): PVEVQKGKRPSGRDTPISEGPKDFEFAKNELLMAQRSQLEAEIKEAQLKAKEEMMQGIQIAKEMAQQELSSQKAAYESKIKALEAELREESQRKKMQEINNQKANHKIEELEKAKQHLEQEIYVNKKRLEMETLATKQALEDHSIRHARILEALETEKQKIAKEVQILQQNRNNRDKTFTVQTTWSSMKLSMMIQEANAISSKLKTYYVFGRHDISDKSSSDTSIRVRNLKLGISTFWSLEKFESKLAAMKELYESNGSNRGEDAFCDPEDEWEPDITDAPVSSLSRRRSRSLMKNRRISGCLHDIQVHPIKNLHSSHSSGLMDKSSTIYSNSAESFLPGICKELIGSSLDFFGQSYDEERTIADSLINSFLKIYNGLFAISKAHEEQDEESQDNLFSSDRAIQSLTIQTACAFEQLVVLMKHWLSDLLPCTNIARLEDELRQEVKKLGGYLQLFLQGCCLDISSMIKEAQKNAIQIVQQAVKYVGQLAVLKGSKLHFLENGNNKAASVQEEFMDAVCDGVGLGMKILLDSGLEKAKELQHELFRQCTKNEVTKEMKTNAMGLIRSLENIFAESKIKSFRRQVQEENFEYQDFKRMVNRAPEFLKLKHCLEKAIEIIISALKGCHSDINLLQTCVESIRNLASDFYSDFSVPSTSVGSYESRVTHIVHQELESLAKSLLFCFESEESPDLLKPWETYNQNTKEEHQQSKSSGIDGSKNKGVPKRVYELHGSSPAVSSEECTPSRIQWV


Biological target: T1, GST::KIF14(901-1648)
Assay: pull-down

| binding result | Binder |
| --- | --- |
| binds | MBP::CIT-K(420-585) (domain or fragment, human, UniProt O14578-4 420-585, looked up) SYSKALGILGRSESVVSGLDSPAKTSSMEKKLLIKSKELQDSQDKCHKMEQEMTRLHRRVSEVEAVLSQKEVELKASETQRSLLEQDLATYITECSSLKRSLEQARMEVSQEDDKALQLLHDIREQSRKLQEIKEQEYQAQVEEMRLMMNQLEEDLVSARRRSDLY |
| binds | MBP::CIT-K(420-585) phosphorylated in vitro by CDK1-cyclin B (pS440) (domain or fragment, human, UniProt O14578-4 420-585, looked up, phosphoserine at 440 (detected with the CIT-K pS440 antibody)) SYSKALGILGRSESVVSGLDSPAKTSSMEKKLLIKSKELQDSQDKCHKMEQEMTRLHRRVSEVEAVLSQKEVELKASETQRSLLEQDLATYITECSSLKRSLEQARMEVSQEDDKALQLLHDIREQSRKLQEIKEQEYQAQVEEMRLMMNQLEEDLVSARRRSDLY |
